Results from article PMC3984902 (Oncogene, 2013).

B1: FLAG-tagged wildtype CDC37 (purified recombinant) (natural protein)
chain: MVDYSVWDHIEVSDDEDETHPNIDTASLFRWRHQARVERMEQFQKEKEELDRGCRECKRKVAECQRKLKELEVAEGGKAELERLQAEAQQLRKEERSWEQKLEEMRKKEKSMPWNVDTLSKDGFSKSMVNTKPEKTEEDSEEVREQKHKTFVEKYEKQIKHFGMLRRWDDSQKYLSDNVHLVCEETANYLVIWCIDLEVEEKCALMEQVAHQTIVMQFILELAKSLKVDPRACFRQFFTKIKTADRQYMEGFNDELEAFKERVRGRAKLRIEKAMKEYEEEERKKRLGPGGLDPVEVYESLPEELQKCFDVKDVQMLQDAISKMDPTDAKYHMQRCIDSGLWVPNSKASEAKEGEEAGPGDPLLEAVPKTGDEKDVSV
B2: FLAG-tagged CDC37 M164A (purified recombinant) (natural protein)
chain: MVDYSVWDHIEVSDDEDETHPNIDTASLFRWRHQARVERMEQFQKEKEELDRGCRECKRKVAECQRKLKELEVAEGGKAELERLQAEAQQLRKEERSWEQKLEEMRKKEKSMPWNVDTLSKDGFSKSMVNTKPEKTEEDSEEVREQKHKTFVEKYEKQIKHFGALRRWDDSQKYLSDNVHLVCEETANYLVIWCIDLEVEEKCALMEQVAHQTIVMQFILELAKSLKVDPRACFRQFFTKIKTADRQYMEGFNDELEAFKERVRGRAKLRIEKAMKEYEEEERKKRLGPGGLDPVEVYESLPEELQKCFDVKDVQMLQDAISKMDPTDAKYHMQRCIDSGLWVPNSKASEAKEGEEAGPGDPLLEAVPKTGDEKDVSV

Biological target: HSP90β (purified recombinant) (UniProt P08238 1-724)
Assay: ITC

HSP90β (purified recombinant), sequence (P08238 whole entry): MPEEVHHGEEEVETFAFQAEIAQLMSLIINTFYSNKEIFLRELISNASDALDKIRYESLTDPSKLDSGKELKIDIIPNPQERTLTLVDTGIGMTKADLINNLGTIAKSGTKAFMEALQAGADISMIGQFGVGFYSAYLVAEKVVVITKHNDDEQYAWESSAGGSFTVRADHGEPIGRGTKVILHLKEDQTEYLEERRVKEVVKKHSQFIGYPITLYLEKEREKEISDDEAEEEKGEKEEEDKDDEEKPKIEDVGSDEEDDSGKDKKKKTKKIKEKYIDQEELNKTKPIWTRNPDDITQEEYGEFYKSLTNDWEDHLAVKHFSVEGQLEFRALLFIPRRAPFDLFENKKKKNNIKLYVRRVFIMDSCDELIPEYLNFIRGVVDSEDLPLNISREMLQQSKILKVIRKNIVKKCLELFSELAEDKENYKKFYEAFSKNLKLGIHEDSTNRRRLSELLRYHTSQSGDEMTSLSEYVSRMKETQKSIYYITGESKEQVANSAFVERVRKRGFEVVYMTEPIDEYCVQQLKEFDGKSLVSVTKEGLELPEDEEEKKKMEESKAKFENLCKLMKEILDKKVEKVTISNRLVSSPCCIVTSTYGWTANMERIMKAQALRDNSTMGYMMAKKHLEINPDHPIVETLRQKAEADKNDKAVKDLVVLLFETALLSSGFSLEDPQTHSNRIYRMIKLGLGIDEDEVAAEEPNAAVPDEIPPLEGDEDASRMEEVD

Binder	Kd
B1	2.26 µM
B2	7.19 µM
